Results on ten molecules are retold here after US20250066499A1 (SUNSHINE GUOJIAN PHARMACEUTICAL SHANGHAI, published 2025).

Changes are numbered by the printed parent chain. Names may count otherwise.

B1: 56B10-HuV21 (antibody, human IgG4, V domains shown)
VH: QVQLVQSGAEVKKPGASVKVSCKTSGYTFTRYYIYWVRQAPGQGLEWIGWIYPGNFNTKYNEKFKGRATLTADTSASTAYMELSSLRSEDTAVYYCARDVYDYAGFAYWGQGTLVTVSS
VL: DIQLTQSPSFLSASVGDRVTITCKASQGVATAVAWYQQKPGQSPKLLIYWASTRHTGVPDRFSGSGSGTEFTLTISSLQPEDFATYYCQQYSSYPWTFGQGTKVEIK
notes: Humanized
B2: 56B10-HuV32 (antibody, human IgG4, V domains shown)
VH: B1 VH with V5Q, T24A, A40R, R87T
VL: B1 VL with Q42K, S43A, D60S
notes: Humanized
B3: 56B10-HuV33 (antibody, human IgG4, V domains shown)
VH: B1 VH with V5Q, T24A, A40R, R87T
VL: B1 VL with L4M, Q42K, D60S, Y87F
notes: Humanized
B4: 56B10-HuV23 (antibody, human IgG4, V domains shown)
VH: B1 VH
VL: B1 VL with L4M, Q42K, D60S, Y87F
notes: Humanized
B5: 48A11-ch (antibody, human IgG4 S228P, kappa, V domains shown)
VH: QVQLQQPGAELVKPGASVKLSCKASGYTFTSYWMHWVKQRPGQGLEWIGEINPSIGRTNYNEKFKSKATLTVDKSSSTAFMQLSSLTSEDSAVYYCARRVYGTMDYWGQGTSVTVSS
VL: DIKMTQSPSSMYASLGERVTITCKASQDINSYLSWFQQKPGKSPKTLIYRANIWVDGVPSRFSGSGSGQDYSLTISSLEYEDMGIYYCLQYDELYTFGGGTKLEIKR
notes: Chimeric: murine variable regions spliced with human IgG4 (S228P) and human kappa constant regions; also called chimeric antibody 48A11-ch
B6: 56B10-ch (antibody, human IgG4 S228P, kappa, V domains shown)
VH: QVQLQQSGPELVKPGASVRISCKTSGYTFTRYYIYWVKQRPGQGLEWIGWIYPGNFNTKYNEKFKGKATLTADTSSSTAYMQLSSLTSEDSAVYFCARDVYDYAGFAYWGQGTLVTVSA
VL: DIVMTQSHRFLSTSVGDRVSITCKASQGVATAVAWYQQKPGQSPKLLIYWASTRHTGVPDRFTGSGSGTDFTLTISNVQSEDLADYFCQQYSSYPWTFGGGTKLEIKR
notes: Chimeric: murine variable regions spliced with human IgG4 (S228P) and human kappa constant regions; also called chimeric antibody 56B10-ch
B7: 48A11-HuV23 (antibody, human IgG4, V domains shown)
VH: QVQLVQSGAEVKKPGASVKVSCKASGYTFTSYWMHWVRQAPGQGLEWIGEINPSIGRTNYNEKFKSRATLTVDKSTSTAYMELSSLRSEDTAVYYCARRVYGTMDYWGQGTLVTVSS
VL: DIQMTQSPSSLSASVGDRVTITCKASQDINSYLSWFQQKPGKSPKLLIYRANIWVDGVPSRFSGSGSGQDYTFTISSLQPEDIATYYCLQYDELYTFGQGTKVEIK
notes: Humanized
B8: 48A11-HuV22 (antibody, human IgG4, V domains shown)
VH: B7 VH
VL: B7 VL with L46T
notes: Humanized
B9: 48A11 (antibody, V domains shown)
VH: B5 VH
VL: DIKMTQSPSSMYASLGERVTITCKASQDINSYLSWFQQKPGKSPKTLIYRANIWVDGVPSRFSGSGSGQDYSLTISSLEYEDMGIYYCLQYDELYTFGGGTKLEIK
notes: Murine hybridoma antibody; also called murine-derived antibody 48A11
B10: 56B10 (antibody, V domains shown)
VH: B6 VH
VL: DIVMTQSHRFLSTSVGDRVSITCKASQGVATAVAWYQQKPGQSPKLLIYWASTRHTGVPDRFTGSGSGTDFTLTISNVQSEDLADYFCQQYSSYPWTFGGGTKLEIK
notes: Murine hybridoma antibody; also called murine-derived antibody 56B10

One test deals with T1, human CD73-His protein (human, UniProt P21589 27-549).
T1 construct: Expressed in HEK-293F with a signal peptide that is not specified; In the ELISAs it was biotinylated with EZ-Link NHS-Biotin (CD73-biotin) and captured on streptavidin; in SPR and the enzyme assay it was used as CD73-His; also called CD73-his antigen; CD73-biotin
T1 sequence: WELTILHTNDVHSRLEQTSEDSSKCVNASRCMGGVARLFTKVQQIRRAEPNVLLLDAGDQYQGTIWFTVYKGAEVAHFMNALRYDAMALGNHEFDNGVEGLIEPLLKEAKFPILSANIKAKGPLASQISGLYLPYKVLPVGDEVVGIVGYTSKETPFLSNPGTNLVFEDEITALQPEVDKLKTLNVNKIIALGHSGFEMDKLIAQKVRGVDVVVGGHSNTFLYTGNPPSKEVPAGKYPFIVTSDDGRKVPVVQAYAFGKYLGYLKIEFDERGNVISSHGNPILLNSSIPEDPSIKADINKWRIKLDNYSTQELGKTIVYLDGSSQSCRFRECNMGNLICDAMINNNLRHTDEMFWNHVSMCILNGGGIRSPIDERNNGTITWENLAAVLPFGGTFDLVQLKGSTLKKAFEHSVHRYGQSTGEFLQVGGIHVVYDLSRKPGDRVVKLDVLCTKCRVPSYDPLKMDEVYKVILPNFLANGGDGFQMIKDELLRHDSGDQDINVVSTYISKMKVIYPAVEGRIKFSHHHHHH
As to the kind of experiment: ELISA, biotinylated CD73-His on streptavidin plate. On the procedure: (§1) The ELISA plates were coated with SA protein diluted to 1.5 μg/mL in coating buffer (50 mM carbonate coating buffer, pH 9.6) and incubated overnight at 4° C. The supernatant was discarded, and the plates were washed three times with PBST. Then, 5% skimmed milk powder prepared with PBS was added for blocking and the plates were incubated for 2 h at 37° C. After washing the plates once with PBST, CD73-biotin protein (prepared by biotinylating CD73-His protein according to the EZ-Link NHS-Biotin Reagent instructions) was diluted to 0.5 μg/mL and added at 100 μL/well for incubation at room temperature for 1 h. The plates were washed three times with PBST, and the prepared murine-derived monoclonal antibodies against human CD73 were serially diluted with 1% BSA buffer prepared with PBST and added to the ELISA plates at 100 μl/well. The plates were incubated at 37° C. for 1 h. After washing the plates three times with PBST, HRP-labeled goat anti-mouse IgG secondary antibody was added and the plates were incubated for 30 min at 37° C. After washing the plates three times with PBST, the residual droplets were patted dry on absorbent paper as much as possible. Then, 100 μl of TMB color developing solution was added to each well, and the plates were incubated in the dark at room temperature for 5 min for color development. Subsequently, 50 μl of 2M H₂SO₄ stop solution was added to each well to terminate the substrate reaction. The OD values were read at 450 nm using a multimode microplate reader to analyze the binding ability of the tested antibodies to the target antigen human CD73-His.
The binding affinity of various humanized antibodies to human CD73-his protein was measured with reference to Example 3.
B1: the EC50 amounted to 0.11 nM. As to B2, the EC50 was found to be 0.105 nM. Take B3: the EC50 was 0.112 nM. Molecule B4 displayed an EC50 of 0.107 nM.

With B5, the EC50 stood at 0.058 nM.

For B6, the EC50 came to 0.07 nM. B7 gave an EC50 of 0.081 nM. On the same count and under the same terms, the result for B8 reads 0.093 nM.

In a further test the target is T1, human CD73-His protein. As to the kind of experiment: ELISA, biotinylated CD73-His on streptavidin plate. The source holds these as a separate data set. On the procedure: as §1
Take B9: it took 0.0197 mg/L to reach a half-maximal effect (EC50). B5 came in with an EC50 of 0.067 nM. On the same count and under the same terms, in the case of B10 it was 0.0269 mg/L; in that of B6, 0.09 nM.

In a further test the target is T1, human CD73-His protein. As to the kind of experiment: cell-based or functional assay.
B3: the “IC50 (nM), inhibition of enzyme activity of soluble CD73-His (AMP/ATP, Cell Titer-Glo)” value was determined as 4.13 nM. Turning to B8, the “IC50 (nM), inhibition of enzyme activity of soluble CD73-His (AMP/ATP, Cell Titer-Glo)” value stood at 9.02 nM.

For the next test, the target named is T2, CD73 protein on the surface of tumor cells (human, UniProt P21589 27-549).
T2 sequence (looked up): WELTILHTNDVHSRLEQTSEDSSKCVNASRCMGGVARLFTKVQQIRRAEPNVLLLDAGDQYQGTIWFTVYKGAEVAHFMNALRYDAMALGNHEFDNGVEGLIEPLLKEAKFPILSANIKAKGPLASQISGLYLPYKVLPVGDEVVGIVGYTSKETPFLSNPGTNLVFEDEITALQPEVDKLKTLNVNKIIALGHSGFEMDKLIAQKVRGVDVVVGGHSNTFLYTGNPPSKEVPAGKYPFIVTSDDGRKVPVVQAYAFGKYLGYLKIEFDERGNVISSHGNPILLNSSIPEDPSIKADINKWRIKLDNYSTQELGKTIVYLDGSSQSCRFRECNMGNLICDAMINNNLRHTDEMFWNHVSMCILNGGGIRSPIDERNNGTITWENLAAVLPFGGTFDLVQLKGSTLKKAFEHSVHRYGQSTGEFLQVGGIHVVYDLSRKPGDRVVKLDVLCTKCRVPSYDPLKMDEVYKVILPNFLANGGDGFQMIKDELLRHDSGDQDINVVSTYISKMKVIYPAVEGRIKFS
As to the kind of experiment: cell-based or functional assay.
With B9, the “IC50 (ng/mL), inhibition of CD73 enzyme activity on H1975 cells (AMP/ATP, Cell Titer-Glo)” value was 17 ng/mL. Regarding B10, the “IC50 (ng/mL), inhibition of CD73 enzyme activity on H1975 cells (AMP/ATP, Cell Titer-Glo)” value worked out at 20.7 ng/mL.
